Results on one molecule are retold here after patent publication US11141462B2, “Method for the treatment or prevention of osteoarthritis” (Chondropeptix B.V., priority 2016, dated 2021).

In data set [1] the test system is Hoffa's fat pad tissue samples from OA patients. Briefly: PGE2 ELISA, Hoffa's fat pad tissue samples. The data set is classed as cell-based, human. As to conditions: 1 nM, 24 h. The procedure: Hoffa's fat pad tissue samples from OA patients (n=6) were treated with BMP-7 (1 nM) with peptide […] (SEQ ID NO: 13) at 10 nM or a scrambled irrelevant control peptide (10 nM) for 24 h. PGE2 levels were determined via an ELISA.
On the technique in general: ELISA stands for enzyme-linked immunosorbent assay.

Data set [2] deals with cartilage explants from OA patient's knee articular cartilage. Briefly: Treatment of cartilage explants, hypertrophic gene expression by qRT-PCR. Format: cell-based, human. As to conditions: 1 nM, 24 h. The procedure:
4 mm 2 cartilage explants were taken from non-lesion areas of OA patient's knee articular cartilage (n=5) and randomly assigned to different experimental treatment conditions (4 explants per treatment group). After a 24 h equilibration period the explants were treated with BMP-7 (1 nM) or the 12-mer peptide according to SEQ ID NO: 43 (10 nM) for 24 h. Hypertrophic gene expression was determined via qRT-PCR and normalized for 28S rRNA levels. After treatment with BMP-7 or the 12 mer we observed a downregulation of pro-hypertrophic genes, such as Col10a1 (FIG. 9A) and MMP13 (FIG. 9B).
In general terms: In qPCR the cycle at which signal appears reflects the starting amount.

In another data set the test system is OA patients. Conditions: phase-1 clinical trial in OA patients; intra-articular injection; cited from earlier work.
The test system of data set [3] is Meniscus tissue samples from OA patients. In words: PGE2 ELISA, meniscus tissue samples. The data set is classed as cell-based, human. Conditions: 1 nM, 24 h. The procedure:
Meniscus tissue samples from OA patients (n=6) were treated with BMP-7 (1 nM) with peptide peptide […] (SEQ ID NO: 13) at 10 nM or a scrambled irrelevant control peptide (10 nM) for 24 h. PGE2 levels were determined via an ELISA.

A further data set has as its system OA chondrocytes. As to conditions: cited from earlier work.
Data set [4] relates to Synovial tissue samples from OA patients. Briefly: PGE2 ELISA, synovial tissue samples. Format: cell-based, human. Conditions: 1 nM, 24 h. The procedure: Synovial tissue samples from OA patients (n=6) were treated with BMP-7 (1 nM), with peptide […] (SEQ ID NO: 13) at 10 nM or a scrambled irrelevant control peptide (10 nM) for 24 h. PGE2 levels were determined via an ELISA.

For data set [5], the system named is Isolated chondrocytes from OA patients. Briefly: Treatment of isolated chondrocytes from OA patients, gene expression by qRT-PCR. The data set is classed as cell-based, human. As to conditions: 1 nM, 24 h; qRT-PCR normalized for 28S rRNA; n=6. The procedure: Isolated chondrocytes from OA patients (n=6) were treated with BMP-7 (1 nM) or the 12-mer peptide according to SEQ ID NO: 43 (1 nM) for 24 h. Pro-chondrogenic (FIG. 8A) and hypertrophic (FIGS. 8B, 8C and 8D) gene expression was determined via qRT-PCR and normalized for 28S rRNA levels.

For data set [6], the system named is IL-1β-exposed chondrocytes. Conditions: cited from earlier work.
The subject of a further data set is OA in rats. As to conditions: intra-articular administration; cited from earlier work.
For data set [7], the system named is Cartilage explants from OA patient's knee cartilage. In words: PGE2 ELISA, cartilage explants. As to conditions: 1 nM, 14 days. Format: cell-based, human. Here is the method: Cartilage explants of 3 mm^2 were taken from OA patient's knee cartilage (n=6) and treated with BMP-7 (1 nM), with peptide […] (SEQ ID NO: 13) at 10 nM or a scrambled irrelevant control peptide (10 nM) for 14 days. Prostaglandin E2 (PGE2) levels, a pro-hypertrophic factor, were determined via an ELISA.

The subject of another data set is Cartilage explants. In words: Safranin-O staining of glycosaminoglycans in cartilage explants. The data set is classed as cell-based, human. As to conditions: 1 nM, 14 days; explants from 2 patients; compared to control. Here is the method:
Cartilage explants obtained from 2 patients were cultured for 14 days in the presence of BMP-7 (1 nM) or BMP-7 mimicking peptide […] (SEQ ID NO: 13) at 10 nM. Glycosaminoglycans (GAGs), an important component of the extracellular matrix (ECM), were stained with Safranin-O (in red) and other tissues are counterstained with Fast green (in green/blue).

Data set [8] concerns Osteoarthritis chondrocytes. Briefly: BMP-7 rescue of OA-associated chondrocyte phenotype (FIG. 1). Format: cell-based. Here is the method: FIG. 1: BMP-7 rescues OA-associated chondrocyte phenotype. Osteoarthritis chondrocytes display a typical phenotype that is characterized by decreased expression of SOX9, COL2A1 and BAPX1/NKX3.2 and an increased expression of COX-2 and IL-6 mRNAs (see left panel).
Functional ALP enzyme activity in cell lysates and PGE2 secretion in the culture medium was also normalized upon BMP-7 treatment of OA chondrocytes (right panel).
Expression of indicated mRNAs was determined by RT-qPCR, relatively to control conditions (normalized for 28S rRNA expression). In graphs, error bars represent mean±SEM, statistical differences were calculated as compared to healthy condition. *=p<0.05.

The mark [9] stands for this setting: BMP-7 1 nM, OA chondrocytes, RT-qPCR normalized for 28S rRNA.
Setting [10] is: BMP-7 treatment of OA chondrocytes.

B1: BMP-7: full-length recombinant human bone morphogenetic protein-7; mature polypeptide of 139 amino acids (protein, listed as Homo sapiens)
chain: STGSKQRSQNRSKTPKNQEALRMANVAENSSSDQRQACKKHELYVSFRDLGWQDWIIAPEGYAAYYCEGECAFPLNSYMNATNHAIVQTLVHFINPETVPKPCCAPTQLNAISVLYFDDSSNVILKKYRNMVVRACGCH
Take B1: in data set [1], the PGE2 levels result is “reduce PGE2 levels”. Moreover, in data set [2], the Col10a1 gene expression result is “downregulation” and the MMP13 gene expression entry is “downregulation”. The adverse events result in the data set on OA patients is on record as “no serious adverse events”. The PGE2 levels entry in data set [3] is “reduce PGE2 levels”. The proteoglycan synthesis result in the data set with OA chondrocytes is “stimulates”. Moreover, in [4], the PGE2 levels result is reported as “reduce PGE2 levels”. In data set [5], the “COL10A1 (pro-hypertrophic) gene expression” value is given as “downregulation”, the “COX-2 (pro-hypertrophic) gene expression” value is reported as “downregulation”, the “Col2a1 (pro-chondrogenic) gene expression” value was “upregulation” and the “RUNX2 (pro-hypertrophic) gene expression” value is given as “downregulation”. Further, in [6], the MMP13 expression entry is on record as “decreases”. Also, the “OA development and progression” value with OA in rats was “protects against OA development and delays progression of OA”. Further, the PGE2 levels entry in [7] is on record as “reduce PGE2 levels”. The “Safranin-O intensity (glycosaminoglycans)” value in the data set with Cartilage explants is “increased Safranin-O intensity”. Further, the “BMP-7 concentration at which OA chondrocyte-phenotype suppressive action is most pronounced” value in data set [8] was “around 1 nM”. Besides, in data set [8] (setting [9]), the “BAPX1/NKX3.2 mRNA expression” value was “normalizing expression”, the “COL2A1 mRNA expression” value is “normalizing expression”, the “COX-2 mRNA expression” value was “normalizing expression” and the “IL-6 mRNA expression” value is listed as “normalizing expression”. Also, in data set [8] (setting [9]), the “SOX9 mRNA expression” value is reported as “normalizing expression”. For the same molecule, the “effects on the chondrocyte phenotype” value in data set [8] (BMP-7 concentrations higher than 1 nM (eg 10 nM or 100 nM)) is “opposite and negative effects”. In addition, in data set [8] (setting [10]), the “Functional ALP enzyme activity in cell lysates” value is “normalized” and the “PGE2 secretion in the culture medium” value was “normalized”.
